# Results taken from patent US20190367618A1 (SHANGHAI JUNSHI BIOSCIENCES, published 2019).
# Key:
# hPD-L1-his = biological target: T1, hPD-L1-his (human, UniProt Q9NZQ7 19-238, limits assumed); assay: ELISA, hPD-L1-his coated, anti-human IgG (Fc-specific)-peroxidase detection
# T1 construct: also called human PD-L1; not shown: his tag
# [1] = biological target: T2, human PD-L1 extracellular domain protein (human, UniProt Q9NZQ7 19-238, biotin (biotin-NHS, molar ratio 1:10) where used as biotin-labeled human PD-L1 (Examples 2, 3, 5, 12, 17)); assay: ForteBio (BLI)
# T2 construct: extracellular domain; About 75 kDa on SDS-PAGE; also called human PD-L1 recombinant protein; biotin-labeled human PD-L1
# [2] = biological target: T3, human PD-L1 (ELISA coat, construct not stated) (human, UniProt Q9NZQ7 19-238, limits assumed); assay: ELISA, PD-L1 coated
# T3 construct: also called human PD-L1 protein
# Description: A 96-well microtiter plate was plated, coated with PD-L1, and incubated at 37° C. for 60 minutes. The solution in the wells was then discarded, and the wells were washed 3 times with washing buffer, and blocked with PBS containing 2% BSA for 60 minutes. After washed 3 times with washing buffer, each well was added with 100 μl of biotin-labeled IgG4 antibody, incubated at 37° C. for 30 minutes, washed 3 times with washing buffer, then added with humanized antibodies of different dilutions, and incubated at 37° C. for 1 hour. After washed 3 times with washing buffer, the cells were incubated with HPR-labeled mouse anti-human IgG (H+L) (diluted 1:10000 with washing buffer) at room temperature for 1 hour, washed 3 times with washing buffer, and then added with 100 μl of TMB substrate for development. After reacting for 30 minutes at room temperature, the reaction was terminated with 100 μl of 2 M hydrochloric acid solution and the absorbance was read at 450 nm.
# PD-L1 on CHO cells = PD-L1 on CHO cells (human, UniProt Q9NZQ7 19-290); assay: cell-based or functional assay
# PD-L1 on 293F cells = biological target: T4, PD-L1 on 293F cells (UniProt Q9NZQ7 19-290, limits assumed); assay: flow cytometry on 293F cells expressing PD-L1
# T4 construct: whole, on cells
# Description: Antibody (humanized antibodies 30, 38) dilutions at different concentrations was added in a volume of 50 μl, mixed and incubated at room temperature for 30 min. The cells were washed twice with FACS buffer, contacted with 100 μl of goat anti-human IgG-PE antibody, and incubated for 30 min in the dark. FACS was performed after washing twice with FACS buffer.
# [3] = biological target: T2, human PD-L1 extracellular domain protein; assay: flow cytometry, inhibition of biotin-PD-L1 (1 µg/ml) binding to PD-1 on 293F cells
# T2 sequence (Q9NZQ7 19-238): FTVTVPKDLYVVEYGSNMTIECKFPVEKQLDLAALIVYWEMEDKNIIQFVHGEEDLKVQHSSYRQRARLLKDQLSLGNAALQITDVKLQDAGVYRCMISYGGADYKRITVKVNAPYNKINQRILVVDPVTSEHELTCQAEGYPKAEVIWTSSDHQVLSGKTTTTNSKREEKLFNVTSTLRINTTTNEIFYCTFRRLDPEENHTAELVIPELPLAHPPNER
# T3 sequence (Q9NZQ7 19-238 limits assumed): as the sequence (Q9NZQ7 19-238) above
# T1 sequence (Q9NZQ7 19-238 limits assumed): as the sequence (Q9NZQ7 19-238) above
# T4 sequence (Q9NZQ7 19-290 limits assumed): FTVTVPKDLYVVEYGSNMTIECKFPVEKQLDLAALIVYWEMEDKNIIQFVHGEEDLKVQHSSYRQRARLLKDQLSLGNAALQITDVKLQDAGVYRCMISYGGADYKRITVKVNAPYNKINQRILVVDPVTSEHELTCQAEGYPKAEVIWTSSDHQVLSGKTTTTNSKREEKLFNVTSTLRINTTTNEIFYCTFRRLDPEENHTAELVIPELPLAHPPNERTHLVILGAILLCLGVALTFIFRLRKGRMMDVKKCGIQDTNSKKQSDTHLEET
# Sequence of PD-L1 on CHO cells (Q9NZQ7 19-290): as the sequence (Q9NZQ7 19-290 limits assumed) above
molecule,measurement,setting,value
durvaluma (antibody),EC50,hPD-L1-his,0.0216 µg/mL
"clone 21 (murine antibody 21) (antibody, V domains shown, Murine hybridoma antibody) VH: EGQLQESGPSLVKPSQTLSLTCSVTGDSITRGYWNWIRKFPGNKFEYMGYISYTGSTYSNLSLKSRISITRDTSKNHYYLRLNSVTTEDTATYYCATSTGWLDPVDYWGQGTLVTVSA VL: DIVMTQSRKFMSTSVGDRASVTCKASQNVDTSVAWFQQKPGQSPKALIYSASFRYSGVPDRFTGSGSGTDFTLTISNVQSEDLAEYFCQQYYGYPFTFGSGTKLEIK",Kd,[1],0.9 nM
"humanized antibody 38 (antibody, V domains shown) VH: QGQLQESGPSLVKPSQTLSLTCTVSGDSITRGYWNWIRKPPGKGLEYIGYISYTGSTYSNLSLKSRVTISRDTSKNQYYLKLSSVTAADTAVYYCATSTGWLDPVDYWGQGTLVTVSS VL: DIQMTQSPSSLSASVGDRVTITCRASQNVDTSVAWFQQKPGKAPKALIYSASFRYSGVPSRFSGSGSGTDFTLTISSLQPEDFATYFCQQYYGYPFTFGQGTKLEIK",EC50,[2],0.000837 µg/mL
same,"EC50, Jurkat fluorescein (PD-1/NFAT-luciferase reporter) analysis",PD-L1 on CHO cells,0.082 µg/mL
same,EC50,PD-L1 on 293F cells,0.348 µg/mL
same,IC50,[3],0.889 µg/mL
"humanized antibody 30 (antibody, V domains shown) VH: QGQLQESGPSLVKPSQTLSLTCTVSGDSITRGYWNWIRKHPGKGLEYIGYISYTGSTYSNLSLKSRVTISRDTSKNQYYLKLSSVTAADTAVYYCATSTGWLDPVDYWGQGTLVTVSS VL: DIVMTQSPDSLAVSLGERATINCKASQNVDTSVAWFQQKPGQPPKALIYSASFRYSGVPDRFSGSGSGTDFTLTISSLQAEDVAVYFCQQYYGYPFTFGQGTKLEIK",EC50,[2],0.000558 µg/mL
same,"EC50, Jurkat fluorescein (PD-1/NFAT-luciferase reporter) analysis",PD-L1 on CHO cells,0.0782 µg/mL
same,EC50,PD-L1 on 293F cells,0.287 µg/mL
same,EC50,hPD-L1-his,0.0111 µg/mL
same,IC50,[3],0.647 µg/mL
"clone 16 (murine antibody 16) (antibody, V domains shown, Murine hybridoma antibody) VH: EVQLQQSGPELVKPGASVKMSCKASGYTFTNYVIHWVKQTPGQGLEWIGYINPNIDGGSYNEKFNGKAKMTSDKSSSTVHMELRSLTYEDFAVYYCAKPRGSWGQGTLVTVSA VL: DIVLTQSPASLAVSLGQRATISCRASESVEFYGTSLMQWYQQKPGQPPKLLIYAASNVDSGVPARFSGSGSGTDFSLNIHPVEEDDIAMYFCQQGRHVPYTFGGGTKLEIK",Kd,[1],0.5 nM
